Assay [1] concerns the target CD137 antigen used to stain yeast (human) (UniProt Q07011). The assay can be described thus: flow cytometry of yeast displaying the scFv, CD137 binding against scFv display; file 01-display-C2.fcs; antigen concentration not given. In general terms: Flow cytometry measures light scatter and fluorescence of single cells or particles in a stream.
Assay [2] has the same target. The assay can be described thus: flow cytometry of yeast displaying the scFv, quadrant plot; the other quadrants read 0.39% (upper left), 34.3% (lower left), 3.83% (lower right).
For assay [3] the target is unchanged. Nature of the assay: flow cytometry of yeast displaying the scFv, CD137 binding against scFv display; file 01-5112.2-B5.fcs; kind of statistic and antigen concentration not given; the boxed gate is set on scFv display.
Assay [4] shares this target. The assay can be described thus: flow cytometry of yeast displaying the scFv clone after TEV protease treatment, CD137 binding against scFv display; file 01-2317-B8.fcs; antigen concentration not given.
Assay [5] has the same target. The assay can be described thus: flow cytometry of yeast displaying the clone after TEV protease treatment, CD137 binding against the axis printed as scFv display; file 01-2328-B11.fcs; antigen concentration not given.

In patent publication US20210207126A1 one finds Y (signal on the CD137 binding axis, FL2-A :: PE-A) and percent of cells in the upper right quadrant (scFv display positive and CD137 binding positive) data, which are given here for 3 molecules.

Sequence of CD137 antigen used to stain yeast (human) (Q07011 24-186 limits assumed): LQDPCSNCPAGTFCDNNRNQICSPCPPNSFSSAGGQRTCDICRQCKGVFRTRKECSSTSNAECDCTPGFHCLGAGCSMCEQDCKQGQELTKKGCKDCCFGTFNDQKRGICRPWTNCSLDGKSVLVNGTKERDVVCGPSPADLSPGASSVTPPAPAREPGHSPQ

B1: scFv of TY21242 displayed on yeast (scFv, part only; not given: scFv linker, Aga2, tag, V domains shown, not shown: another chain or arm of the molecule; large carriers; small tags and cut ends)
VL: DIQLTQSPSSLSASVGDRVTITCRASQSIGSYLAWYQQKPGKAPKLLIYDASNLETGVPSRFSGSGSGTDFTLTISSLQPEDFATYYCQQGYYLWTFGQGTKVEIK
VH: EVQLVESGGGLVQPGGSLRLSCAASGFSLSTGGVGVGWIRQAPGKGLEWLALIDWADDKYYSPSLKSRLTISRDNSKNTLYLQLNSLRAEDTAVYYCARGGSDTVIGDWFAYWGQGTLVTVSS
As to B1, the Y (signal on the CD137 binding axis, FL2-A :: PE-A) in assay [1] turned out to be 27800; in assay [3] it was 19200. Further, the percent of cells in the upper right quadrant (scFv display positive and CD137 binding positive) in assay [2] is 61.4%.

B2: CD137 activatable antibody clone B13428 (scFv on yeast, masking peptide cleaved by TEV protease) (scFv, part only; not given: cleavage stub, scFv linker, Aga2, V domains shown, not shown: another chain or arm of the molecule; large carriers; small tags and cut ends)
VL: DIQLTQSPSSLSASVGDRVTITCRASQSIGSYLAWYQQKPGKAPKLLIYDASNLETGVPSRFSGSGSGTDFTLTISSLQPEDFATYYCQQGYYLWTFGQGTKVEIK
VH: EVQLVESGGGLVQPGGSLRLSCAASGFSLSTGGVGVGWIRQAPGKGLEWLALIDWADDKYYSPSLKSRLTISRDNSKNTLYLQLNSLRAEDTAVYYCARGGSDTVIGDWFAYWGQGTLVTVSS
In assay [4], B2 gave a Y (signal on the CD137 binding axis, FL2-A :: PE-A) of 10100.

B3: CD137 activatable antibody clone B13439 (scFv on yeast, masking peptide cleaved by TEV protease) (scFv, part only; not given: cleavage stub, scFv linker, Aga2, tag, V domains shown, not shown: another chain or arm of the molecule; large carriers; small tags and cut ends)
VL: DIQLTQSPSSLSASVGDRVTITCRASQSIGSYLAWYQQKPGKAPKLLIYDASNLETGVPSRFSGSGSGTDFTLTISSLQPEDFATYYCQQGYYLWTFGQGTKVEIK
VH: EVQLVESGGGLVQPGGSLRLSCAASGFSLSTGGVGVGWIRQAPGKGLEWLALIDWADDKYYSPSLKSRLTISRDNSKNTLYLQLNSLRAEDTAVYYCARGGSDTVIGDWFAYWGQGTLVTVSS
As for B3, the Y (signal on the CD137 binding axis, FL2-A :: PE-A) in assay [5] is 7270.
